In patent publication US20180334496A1:

Target: recombinant human CFD mutant 1 (R157A, R207A), His-tagged (human) (UniProt P00746)
Assay: ELISA

Chain of recombinant human CFD mutant 1 (R157A, R207A), His-tagged (human) (P00746 26-253 R182A/R232A limits assumed): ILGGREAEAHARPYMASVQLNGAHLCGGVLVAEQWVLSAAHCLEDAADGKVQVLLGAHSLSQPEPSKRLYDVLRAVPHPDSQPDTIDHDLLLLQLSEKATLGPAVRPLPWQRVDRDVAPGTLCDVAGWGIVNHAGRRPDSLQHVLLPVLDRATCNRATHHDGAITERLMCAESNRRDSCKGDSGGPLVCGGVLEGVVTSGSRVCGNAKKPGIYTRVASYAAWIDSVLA

Mut1 Binding (% wt): 13.6 % wt
B1: KCD119 (antibody, V domains shown)
VH: EVQLQQSGPELVKPGASVKISCKASGYTFTDYYTNWMRQRHGESLEWIGDINPNTGDTSYNQKFRVKATLTVDKSSGTAYMGLRSLTSEDSAVYYCTREGPSFAYWGQGTLVTVSA
VL: DVLMTQTPLSLPVSLGDQASISCRSSQTIVHSNGDTYLEWYLQKPGQSPNLLIYKVSNRFSGVPDRFSGSGSGTDFTLKISRVEAEDLGVYYCFQGSHVPPTFGGGTTLEIK
